Data taken from article PMC5577323, “Oxidant sensor in the cGMP-binding pocket of PKGIα regulates nitroxyl-mediated kinase activity” (Scientific Reports, 2017).

Biological target: the molecule itself
Assay: cross-linking; interprotein disulfide formed in transfected HEK-293 cells (vehicle, NCA 100 µmol/L 30 min or AS 500 µmol/L 15 min); homogenates in non-reducing Laemmli buffer with 100 mmol/L maleimide, SDS-PAGE, western blot for PKGIα; 150 kDa band lost with 2-mercaptoethanol

B1: cGMP-dependent protein kinase I-alpha (PKGIα), human, wildtype (enzyme, UniProt Q13976 1-671, looked up)
chain: MSELEEDFAKILMLKEERIKELEKRLSEKEEEIQELKRKLHKCQSVLPVPSTHIGPRTTRAQGISAEPQTYRSFHDLRQAFRKFTKSERSKDLIKEAILDNDFMKNLELSQIQEIVDCMYPVEYGKDSCIIKEGDVGSLVYVMEDGKVEVTKEGVKLCTMGPGKVFGELAILYNCTRTATVKTLVNVKLWAIDRQCFQTIMMRTGLIKHTEYMEFLKSVPTFQSLPEEILSKLADVLEETHYENGEYIIRQGARGDTFFIISKGTVNVTREDSPSEDPVFLRTLGKGDWFGEKALQGEDVRTANVIAAEAVTCLVIDRDSFKHLIGGLDDVSNKAYEDAEAKAKYEAEAAFFANLKLSDFNIIDTLGVGGFGRVELVQLKSEESKTFAMKILKKRHIVDTRQQEHIRSEKQIMQGAHSDFIVRLYRTFKDSKYLYMLMEACLGGELWTILRDRGSFEDSTTRFYTACVVEAFAYLHSKGIIYRDLKPENLILDHRGYAKLVDFGFAKKIGFGKKTWTFCGTPEYVAPEIILNKGHDISADYWSLGILMYELLTGSPPFSGPDPMKTYNIILRGIDMIEFPKKIAKNAANLIKKLCRDNPSERLGNLKNGVKDIQKHKWFEGFNWEGLRKGTLTPPIIPSVASPTDTSNFDSFPEDNDEPPPDDNSGWDIDF
modifications: interprotein disulfide at Cys42 (between the two subunits); intradisulfide Cys117-Cys195 after HNO donors
notes: written here as one chain because the row is of the protein with itself; also called WT PKGIα; PKGIα WT; source: HEK-293, transfected (pcDNA3), in cell homogenate
stoichiometry N: 2
